Measurements as given in US11524082B2, “FBSA-based therapeutic and radioimaging conjugates targeting carbonic anhydrase positive cancers” (priority 2017, dated 2022).

Key:
[1] = system: A549 xenografts; parameters: species or system mice; conditions: in vivo
Procedure: (§1) Whole-Body Imaging and Biodistribution of Radiolabeled 17 in Mouse Xenograft Models
(§2) SKRC52, HT29, or A549 cells (˜3×10^6 cells per mouse) were injected subcutaneously into the shoulders of female athymic nu/nu mice. Growth of the tumors was measured in two perpendicular directions and the volumes of the tumors were calculated as 0.5×L×W^2 (L=longest axis and W=axis perpendicular to L in millimeters). Once tumors reached a minimum of 500 mm^3 in volume, animals were injected with radiolabeled Conjugate 17 (250 μCi) in PBS (100 μL, pH 7.4) via tail vein injection. To obtain whole-body images, mice were anesthetized with isoflurane and images were acquired with a Kodak Imaging Station (In-Vivo FX, Eastman Kodak Company) in combination with CCD camera and Kodak molecular imaging software (version 4.0) with the kidneys shielded. Radioimages were acquired using the following parameters: radio isotope illumination source, 3 min acquisition time, f-stop=4, focal plane=5, FOV=160, binning=8. White light images were acquired using the following parameters: white light transillumination illumination source, 0.175 s acquisition time, f-stop=16, focal plane=5, FOV=160, and no binning. After acquiring the whole-body imaging, the mice were sacrificed with CO2 asphyxiation and, following necropsy, the tissues were placed into preweighed γ-counter tubes. The radioactivity of the tissues and a fraction of the injected dose was measured in a γ-counter (Packard, Packard Instrument Company). Count per minute (CPM) values were corrected for decay times, and the results were calculated as percent of the injected dose per gram (% ID/g) of wet tissue.
250 μCi of radiolabeled Conjugate 17 was injected into the tail vein of mice bearing xenografts derived from the A549 cell line. At various time points shown in Table 3, the tissues were removed from the mice (n=1 per time point), weighed, and the radioactivity was quantified on a gamma counter. Because copper-64 emits gamma radiation at 511 keV in 36% abundance, it is possible to use gamma detection methods.

[2] = system: HT29 xenografts; parameters: species or system mice; conditions: in vivo
Procedure: as §1, §2

[3] = system: SKRC52 xenografts; parameters: species or system mice; conditions: mouse, in vivo
Procedure: as §1, §2

[4] = target: T1, CAIX (Homo sapiens, UniProt Q16790); test: Binding affinity of CAIX FITC conjugates by flow cytometry in SKRC52 cells; parameters: endogenous in cells; host or cells: SKRC52
Source text: (§3) General Procedure for Binding Affinity Determination of CAIX FITC Conjugates

[5] = target: T1, CAIX; test: Binding affinity of CAIX FITC conjugates by flow cytometry in HEK293 transfected with CAIX; parameters: expressed in transfected cells; host or cells: HEK293
Source text: as §3

| SMILES | radiation count at the tumor site, competition mouse versus non-competition mouse [1] | tumor uptake in whole-body image, targeted versus competition mouse [1] | time of the highest tumor-to-tissue ratio ([1]; mouse) | tumor uptake in whole-body image, targeted versus competition mouse [2] | tumor to tissue background ratios ([2]; mouse) | radioactivity at the tumor, with competition control [3] | uptake of removed tumors, targeted versus competition [3] | Kd [4] [nM] | Kd [5] [nM] | binding with competition by unconjugated inhibitor ([5]; HEK293-CA9 cells, 100-fold excess unconjugated inhibitor (Compound 3), FIG. 5) |
| --- | --- | --- | --- | --- | --- | --- | --- | --- | --- | --- |
| NS(=O)(=O)c1c(F)c(F)c(S(=O)(=O)CCC(=O)NCCOCCOCCC(=O)NCCNC(=O)CCC(C(=O)O)N2CCN(CC(=O)O)CCN(CC(=O)O)CC2)c(NC2CCCCCCC2)c1F (stereo not shown) (64Cu complex, metal not drawn) [radiolabeled Conjugate 17] | much lower radiation count at the tumor site | much higher tumor uptake than that of the competition mouse | nine | also demonstrated in mice bearing HT29 xenografts | not very good | the radioactivity at the tumor was receptor mediated | higher tumor uptake in the targeted mouse versus the competition mice |  |  |  |
| N[C@@H](CNC(=O)CCOCCOCCOCCOCCNC(=O)CCS(=O)(=O)c1c(F)c(F)c(S(N)(=O)=O)c(F)c1NC1CCCCCCC1)C(=O)N[C@@H](CC(=O)O)C(=O)N[C@@H](CSC1CC(=O)N(c2ccc(-c3c4ccc(=O)cc-4oc4cc(O)ccc34)c(C(=O)O)c2)C1=O)C(=O)O (stereo partly drawn) [Conjugate 7, 5-(3-(((2R,5S,8S)-8-amino-2-carboxy-5-(carboxymethyl)-29-((2-(cyclooctylamino)-3,5,6-trifluoro-4-sulfamoylphenyl)sulfonyl)-4,7,11,27-tetraoxo-14,17,20,23-tetraoxa-3,6,10,26-tetraazanonacosyl)thio)-2,5-dioxopyrrolidin-1-yl)-2-(6-hydroxy-3-oxo-3H-xanthen-9-yl)benzoic acid] |  |  |  |  |  |  |  | 4.57 | 55.2 | bound the cells and competed in the presence of 100-fold excess unconjugated inhibitor |
